Reference: publication doi:10.1101/2022.03.31.486616

Target: E. cloacae Cap2 (C109A/C548A), catalytically dead (E. cloacae)
Experiment: cryo-EM structure

E. cloacae Cap2 (C109A/C548A), catalytically dead (enzyme)
stoichiometry N: 2
